# According to the nanobody polyreactivity screen of Harvey et al. (2022):
# Test: yeast display, Sf9 membrane polyspecificity reagent, FACS + sequencing; frameworks hold sequencing errors
# Outline: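 Using colony PCR, genes from sorted yeast display clones were amplified, then sequenced on MiSeq at 2 × 250 and filtered by CDR length. The clones had been stained with 10% biotinylated, detergent-solubilized Sf9 membrane reagent for 1 hour at 4 °C and sorted by FACS into low and high (top ~1%) gates on anti-HA and streptavidin fluorescence. Polyreactivity labels come from the gate of origin.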
row,Sequence,polyreactivity (PSR sort gate)
1,QVQLVESGGGLVQAGGSLRLSSAATGSIIGFYAMGWYRQAPGKERELVAAITRGGGSTFYADSVKGRFTISRDNAKNTVYLQINSLKPEDTAVYYCAATVYRYHGPGYYYWGQGTQVTVSS,high polyreactivity
2,QVQLVESGGGLVQAGGSLRLSSAGSGRIFGYYAMGGYRQAPGTETELVAAISSNGGSTYYADSVKGRFTISRDNANNTVYLQMNSLQPEDTAVYYCKVYFYSRHYFYRGDYWGQGTQVTVSS,high polyreactivity
3,QVQLVESGGGLVQAGGSLRLSSAPSGRIFDHYAMGWYRQAHGKERELGAAITRSGGITYYADSVKGRFTISRDNAKNTVYLQMNSLKPEDTAVYYCAALSYRYTDKFDYWGQGTQVTVSS,low polyreactivity
4,QVQLVESGGGLVQAGGSLRLSSAPSGSTYYVYDMGWYRQAPGKERELVAAITSGGSTNNADSVKGRFTISRDNAKNTVYLEMKSLKPVDTAVYYCAAQGRVWDSYGYEYVQEVTRDYWGQGTQVNVSS,low polyreactivity
5,QVQLVESGGGLVQAGGSLRLSSDASGFIIANNALGWYRQAPVKERELVAAISRSGGRTYYADSVKGRFTISRDNGKKTVYLQMNSLKTEDTAVYYCVADRTDTSNYWGQGTQVTVSS,high polyreactivity
6,QVQLVESGGGLVQAGGSLRLSWAASGFGWYAMGWYRQAPGKEREFVAAISRGGGSTYYADSVKGRFTISRDNAKNTVYLQMNSLKPEDTAVYYCAAVYYRRISQGDTQTYYQYNYWGQGTQVTVSS,high polyreactivity
7,QVQLVESGGGLVQAGGSLRLSWAASGHTFHGYDMGWYRQEPGKERDLVAAITSTGGSTHYSDSVKGRFTISRDNAKNTVYLQMNSLKPEDTAVFFCANRSYGLTRAYSAGNFWGQGTQVTVSS,low polyreactivity
8,QVQLVESGGGLVQAGGSLRLSWAASGITFYGNAMGWYRAAPGKEREFVAAISTRDGTTYADSVKGRFTISRDNAKNTVYLQRNSLKPEDTAVYYCAAAYYYDGQQGDFAYWGQGTQVTVSS,low polyreactivity
9,QVQLVESGGGLVQAGGSLRLSWAASGNTFNNNPMGWYRQAPGKERELVAAISGSGGSTYYADSVKGRFTISRDNAKNTVYLQLNSLKPEDTAGYYCAVRLVHGGKRYVYWGQGTQVTVSS,high polyreactivity
10,QVQLVESGGGLVQAGGSLRLSWAASGPTCGQLAMVWYRQAPGKERELVAAISYSGARTYYADSVKGRFTISRDNAKNTVDLQMNSLIPQDTAVKYCNAYSAYVNGNRRGLGYWGQGTHVTVSS,high polyreactivity
11,QVQLVESGGGLVQAGGSLRLSWAASGSSFFRNAMGGYSQAPGKERELVASISRSGGSTYYADSVKGRFTISRDNAKNTVYLQMNSLKPEDTAVSYCAKKPNTQTSYWYYYWGQGTQVTVST,high polyreactivity
12,QVQLVESGGGLVQAGGSLRLSWAASGSTFIGYAMGWYRQAPGKERELVAAISWSGGLTYYADSVKGRFTFSRDNAKNTVYLQMNSLKPEDTAVYYCNTVPYGISVQFNYWGQGTQVTVSS,high polyreactivity
13,QVQLVESGGGLVQAGGSLRLSWAASGSTFQSYAMGLSRQAPGKERELVAAISFSGGSTYYADSVKGRFTISRDNAKNTVYLQMHSLKPEDTAVYYCAADVAYVEYDYWGQGTQVTVSS,low polyreactivity
14,QVQLVESGGGLVQAGGSLRLSWAASGSTFRNYAMGWYRQAPGKEREFVAAISRSGGSTYYADSVKGRFTISRDNANNPVYLQMISLKPEETAVYYCNKESFWGPDNYWGQGTQETVSS,high polyreactivity
15,QVQLVESGGGLVQAGGSLRLSWAAYGRNFRPNTMGWYRQAPGKEREMVAAISRSGGSTYYADSVKARFTISRDNAKNTVYLQMNSLKPEDTAVYYCAKRYGGIVGVGAYKYEYWGQGTQVTVSS,high polyreactivity
16,QVQLVESGGGLVQAGGSLRLSWATSGFILLDNALGWYRQAPGKESEFVASINISGDRTFYADSVKGRFTISRDNAKNTVYLQMNSLKAEDTAVYYCAKEPGWGRRSTTAYDYWGQGTQVTVSS,low polyreactivity
17,QVQLVESGGGLVQAGGSLRLTCAASGFIFAYYVMGWYRQAPGKERELVAAITSSDGITYYADSVKGRFTISRDNAKNTVYLQMNSLKPEDTAVYYCNADVYPDVGWRESDYWGQGTQVTVSS,low polyreactivity
18,QVQLVESGGGLVQAGGSLRLTCAASGFIFGANTRGWYRQAPGKERELVATISWSGGSTYYADSVKGRFTISRDNAKMTVYLQMNSLKPEVTAVYYCAAPGVTYGFRSVYWGQGTQVTVSS,low polyreactivity
19,QVQLVESGGGLVQAGGSLRLTCAASGFIFPLYTMGWYRQAPGKERELVAAITGSGGSTYYADSVKGRFTISRDNAKNTVYLQMNSLKPEDTAVYYCAKDYTYGMDWGQGTQVTVSS,low polyreactivity
20,QVQLVESGGGLVQAGGSLRLTCAASGFIFRYYAMGWYRPATGKEMELVAAISRGGSTNYADSVKGRFTISRDNAKYTVYLQMNSLKPEDTAVYYCASRKGRSKQGYYYWGQGTQVTVSS,high polyreactivity

row,Sequence,polyreactivity (PSR sort gate)
1,QVQLVESGGGLVQAGGSLRLTCAASGFIFRYYAMGWYRQAPGKERELVAAISRSGGSTYYADSVKGRFTISRDNAKNTVYLQMNSLKPEDTAVYYCAAKDGRSYYDRTPMDYWGQGTQVTVSS,low polyreactivity
2,QVQLVESGGGLVQAGGSLRLTCAASGFIIKFYDMGWYRQAPGKERELVATITFSSGTTYYADSVKGRFTISRDNAKNTVYLQMNSLKPEDTAVYYCAAYTLPAWPYDGPAGPRYDYWGQGTQVTVSS,low polyreactivity
3,QVQLVESGGGLVQAGGSLRLTCAASGFILSSNAMGWYRQAPGKERELVAAITRSGGSTYYADSVKGRFTISRDNAKNTVYLEMNSLKPEDTAVYYCNRLYYSGSGASLDYWGQGTQVTVSS,high polyreactivity
4,QVQLVESGGGLVQAGGSLRLTCAASGFIYPYYAMGWYRQATGKERELVATNTRSGGSTYYADSVKGRFTISLDNAKNNVYLQMNSVKQEDSAVYSCAADIYWYRGYGFWGQGTQVTVSS,high polyreactivity
5,QVQLVESGGGLVQAGGSLRLTCAASGFTFGTYAMGWYRQAPGKERELVAAITWSGGSTYYADSVKGRFTISRDNAKNTVYLQMNSLKPEDTAVYYCAAESADYNDGDYWGQGTQVTVSS,low polyreactivity
6,QVQLVESGGGLVQAGGSLRLTCAASGGTFQPNAMGGYRQAPGKERELVAAISWSDGSTYYADSVKGRFTISRDNAKNTVYLQMKSLKPVDTAVYYCAADFTYYDSPYRDYNYESWGQGTQVTVSS,low polyreactivity
7,QVQLVESGGGLVQAGGSLRLTCAASGGTIFPNAMGWYRQAPGKEMELVATITSSDTTNYADSVKGRFTISRDNAMNTVYLQMNSLKTEDTAVYYCDASFKLRYWDYYYWGQGTQVTVSS,low polyreactivity
8,QVQLVESGGGLVQAGGSLRLTCAASGGTLDYNAMGWYRQAPGKERELVAPISAGADGTYYADSVKGRFTISRDNAKNTVYLQMNSLKPEDSAVYYCAARPKNNWARTNFGIRYNDWGQGTQVTVSS,high polyreactivity
9,QVQLVESGGGLVQAGGSLRLTCAASGIIFDKNAMGWYRQAPGKERELVAVITRGGSTYYADSVKGRFTISRDNAKNTVYLQMNSLKPEDTAVYYCAARYTPGFGYWGQGTQVTVSS,high polyreactivity
10,QVQLVESGGGLVQAGGSLRLTCAASGIIFSGYAMGWYRQAPGTERELVASIRSGSNTYYADSVKGRITISRDNAKYTVYFQMNSLKPEDTGVYYCAADIEYSYFQVFSYNYEYWGQGSQVTVSS,low polyreactivity
11,QVQLVESGGGLVQAGGSLRLTCAASGIILVAYPMGWYRQAPGKERELVAAITTSGTSTYYADSVKGRFTISRDNAKNTGYVQMNSLKPEDTAVYYCAVRQRYGPARYDYWGQGTQVTVSS,high polyreactivity
12,QVQLVESGGGLVQAGGSLRLTCAASGIIYYVYAMVWYRQAPGKERELVAAITSGGTTYYADSVKGRFTISRDNAKNTVYLQMNSLKPEDTAVYYCAAARGGGRTYGYWGQGTQVTVSS,high polyreactivity
13,QVQLVESGGGLVQAGGSLRLTCAASGITFCIYVMGWYRQAPGKEREVVATISRSDDNTYYADSVKGRFTISRDNAKNTVYLQMYCLKPEDTAVYYCAADGVISAWYSSRDDYWGQGTQVTVSS,low polyreactivity
14,QVQLVESGGGLVQAGGSLRLTCAASGITFDLNAKGWYRQAPGKERELVAAIFRGGSTYYADSVKGRFTISRDNAKNTVYLQMNSLKPEDTAVYYCAAAYYRVGRAYPHEAYDYWGQGTQVTVSS,low polyreactivity
15,QVQLVESGGGLVQAGGSLRLTCAASGITFKYKAMGWYRQAPGKEWELVAAISKGGGSTYYADSVKGRFTISRDNAKNTVYLQMNSLKPEVTAVYYCNAVPRRPVVSDTNPVGYDYWGEGTQVTVSS,low polyreactivity
16,QVQLVESGGGLVQAGGSLRLTCAASGLIFVDNAMGWYRQAPGKERELVAAIDSGGSTNYADSVKGRFTISRDNAKNTVYLPMNSLKPEDTAVYYCAAEYVRFYWYTSDYWGQGTQVTVSS,low polyreactivity
17,QVQLVESGGGLVQAGGSLRLTCAASGLIFYAYAMGWYRPAPWKERELVAAITSGGDTNYADSVKGRFTISRDNAKNTVYLQMNSLKPEDTAVYYCNADPPVFQSVYWRWYHNYDYWGQGTQVTLSS,low polyreactivity
18,QVQLVESGGGLVQAGGSLRLTCAASGLIFYDNMGWYRQEPGKQRELVAAITVSGGATYYADSVKGRFTISRDNAKNTVYLQMNSLKTEDTAVFYCARELLSPTYQRWYYYWGQGTQVTVSS,low polyreactivity
19,QVQLVESGGGLVQAGGSLRLTCAASGLTFSYNAMGWYRQAPGKERELVAAITVSGGRTYYADSVKGRFTISRDNAKNTVYLQMNSLKPEDTAVYYCNADYDEGYYGYLRYDYDYWGQGTQVTVSS,high polyreactivity
20,QVQLVESGGGLVQAGGSLRLTCAASGNIFSTYAMGWYRQAPGKERELVASISENGGSTYYADSVKGRFSISRDNAKTTVYLQMNSLKPEHTAVYYCNKDYYYPNSWPKYVYWGQGTQVTLSS,low polyreactivity
